Data from article PMC9588774 (Cell Death & Disease, 2022).

T1: CD95L (FasL, Peprotech) (UniProt P48023 130-281)
T1 chain: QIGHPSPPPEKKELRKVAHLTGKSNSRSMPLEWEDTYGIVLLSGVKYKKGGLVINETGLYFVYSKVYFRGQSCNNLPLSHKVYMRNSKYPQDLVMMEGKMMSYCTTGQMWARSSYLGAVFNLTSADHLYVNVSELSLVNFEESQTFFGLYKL


Columns and labels:
[1] = molecular target: soluble full-length extracellular domain of CD95 (sCD95); test: SEC; supernatants of sCD95-secreting HEK/293T cells on Superdex 200 Prep Grade (XK 16/70) in PBS, 1 mL/min, 1 mL fractions; CD95 in each fraction dosed by ELISA; native molecular markers
[2] = molecular target: T1, CD95L (FasL, Peprotech); test: SPR
[3] = molecular target: CD95L (FasL, Peprotech) (UniProt P48023); test: SPR; Biacore T200, 25 °C; CM5 chip coated with 140 RU of FasL (Peprotech); sCD95 or sCD95-Δ58 injected in triplicate at 25 µl/min in 10 mM Na2HPO4, 150 mM NaCl, 3 mM EDTA, 0.05% Tween-20, pH 7.4; Langmuir 1:1 fit, KD = kd/ka
[4] = molecular target: the molecule itself; test: SEC; supernatants of sCD95-secreting HEK/293T cells on Superdex 200 Prep Grade (XK 16/70) in PBS, 1 mL/min, 1 mL fractions; CD95 in each fraction dosed by ELISA; native molecular markers

Binder	percent of homotrimer [1]	percent of monomer [1]	percent of the protein in the dimer fractions [1]	stoichiometry N [1]	koff [2]	Kd [3]	stoichiometry N [4]
soluble full-length extracellular domain of CD95 (sCD95) (domain or fragment, N-glycosylated) RLSSKSVNAQVTDINSKGLELRKTVTTVETQNLEGLHHDGQFCHKPCPPGERKARDCTVNGDEPDCVPCQEGKEYTDKAHFSSKCRRCRLCDEGHGLEVEINCTRTQNTKCRCKPNFFCNSTVCEHCDPCTKCEHGIIKECTLTSNTKCKEEGSRSNL	27%	20%	44%	2	0.0011 s⁻¹	2 nM	–
soluble Δ36-truncated extracellular domain of CD95 (sCD95-Δ36) (domain or fragment, UniProt P25445 37-173, looked up, CD95 (Fas), a.a; 37-173 of the 335-residue precursor; pcDNA3.1(+); also called Δ36-CD95; MMP7-cleaved form; source: HEK/293T, transfected (calcium/phosphate), secreted into serum-deprived Opti-MEM; supernatant ultracentrifuged) LRKTVTTVETQNLEGLHHDGQFCHKPCPPGERKARDCTVNGDEPDCVPCQEGKEYTDKAHFSSKCRRCRLCDEGHGLEVEINCTRTQNTKCRCKPNFFCNSTVCEHCDPCTKCEHGIIKECTLTSNTKCKEEGSRSN	–	–	–	–	–	–	2
soluble extracellular domain of CD95 with K33G (sCD95-K33G) (domain or fragment, UniProt P25445 17-173, looked up, CD95 (Fas), a.a; 17-173 of the 335-residue precursor, AAG codon (K) replaced by GGG (G); pcDNA3.1(+); also called soluble K33G CD95 mutant; source: HEK/293T, transfected (calcium/phosphate), secreted into serum-deprived Opti-MEM; supernatant ultracentrifuged) RLSSKSVNAQVTDINSGGLELRKTVTTVETQNLEGLHHDGQFCHKPCPPGERKARDCTVNGDEPDCVPCQEGKEYTDKAHFSSKCRRCRLCDEGHGLEVEINCTRTQNTKCRCKPNFFCNSTVCEHCDPCTKCEHGIIKECTLTSNTKCKEEGSRSN	–	–	–	–	–	–	3
soluble Δ58-truncated extracellular domain of CD95 (sCD95-Δ58) (domain or fragment) CHKPCPPGERKARDCTVNGDEPDCVPCQEGKEYTDKAHFSSKCRRCRLCDEGHGLEVEINCTRTQNTKCRCKPNFFCNSTVCEHCDPCTKCEHGIIKECTLTSNTKCKEEGSRSNL	–	–	–	–	0.0011 s⁻¹	2.5 nM	–
